Assay results as given in US20230105982A1 (Merck Sharp & Dohme, published 2023).
Starred links: 1 amine or outer side, 2 acyl side, 3 side chain; linkers in the order of their positions; H or OH if unused. Non-standard residues stand in square brackets, D forms with d. Groups on a side chain read outwards from the residue. No end group written: not given here. *: point of attachment. C16 = C16 fatty acyl group, not further defined; C18 diacid = O=C(O)CCCCCCCCCCCCCCCCC(=O)*; Lys(N3) = [N-]=[N+]=NCCCC[C@H](N)C(=O)O; γGlu = O=C(O)[C@H](CCC(=O)[*:2])N[*:1]; Met(O2) = CS(=O)(=O)CC[C@H](N)C(=O)O; Palmitoyl = CCCCCCCCCCCCCCCC(=O)*; AEEA = NCCOCCOCC(=O)O; Aib = CC(C)(N)C(=O)O

How the values were obtained:
Experiment in all cases: cell-based or functional assay
[1] = target: human GLP-1 receptor (GLP1R) (human, UniProt P43220 24-463)
[2] = target: human Glucagon receptor (GCGR) (human, UniProt P47871 26-477)
[3] = target: human GLP-1 receptor (human, UniProt P43220 24-463)
[4] = target: human glucagon receptor (human, UniProt P47871 26-477)

Row | Binder | hGLP1R EC50 (nM), cAMP assay [1] | hGCGR_EC50 (nM), cAMP assay [2] | Incretin Receptor Assay (cAMP) EC50 [3] | Incretin Receptor Assay (cAMP) EC50 [4]
1 | H[Aib]QGTFTSDYSKYLDARAAK([AEEA-AEEA-γGlu-C20‑OH])DFV[Lys(N3)]WL[Met(O2)]DT-NH2 [PEP31] | 1.38 nM | 4.24 nM |  | 
2 | HXEGTFTSDKSKYLDERAAQDFVXWLLDT (D-serine at 2; Lys 10 conjugated to γEγE-C16; Nle(εN3) at 24; C-terminal amide) [PEP75] |  | > 5 nM |  | 
3 | H[dS]QGTFTSDK([γGlu-γGlu-C16])SKYLDERAAQ[Lys(N3)]FVQWLLDT-NH2 [PEP1] |  | 0.01 nM |  | 
4 | H[Aib]QGTFTSDYSKYLDARAAK([AEEA-AEEA-γGlu-C18 diacid])DFV[Lys(N3)]WL[Met(O2)]DT-NH2 [PEP30] | 0.5 nM | 2.27 nM |  | 
5 | H[dS]QGTFTSDK([γGlu-γGlu-Palmitoyl])SKYLDERAAQDFVQWLLDT-NH2 (N-terminus assumed; SMILES CCCCCCCCCCCCCCCC(=O)N[C@@H](CCC(=O)N[C@@H](CCC(=O)NCCCC[C@H](NC(=O)[C@H](CC(=O)O)NC(=O)[C@H](CO)NC(=O)[C@@H](NC(=O)[C@H](Cc1ccccc1)NC(=O)[C@@H](NC(=O)CNC(=O)[C@H](CCC(N)=O)NC(=O)[C@@H](CO)NC(=O)[C@@H](N)Cc1c[nH]cn1)[C@@H](C)O)[C@@H](C)O)C(=O)N[C@@H](CO)C(=O)N[C@@H](CCCCN)C(=O)N[C@@H](Cc1ccc(O)cc1)C(=O)N[C@@H](CC(C)C)C(=O)N[C@@H](CC(=O)O)C(=O)N[C@@H](CCC(=O)O)C(=O)N[C@@H](CCCNC(=N)N)C(=O)N[C@@H](C)C(=O)N[C@@H](C)C(=O)N[C@@H](CCC(N)=O)C(=O)N[C@@H](CC(=O)O)C(=O)N[C@@H](Cc1ccccc1)C(=O)N[C@H](C(=O)N[C@@H](CCC(N)=O)C(=O)N[C@@H](Cc1c[nH]c2ccccc12)C(=O)N[C@@H](CC(C)C)C(=O)N[C@@H](CC(C)C)C(=O)N[C@@H](CC(=O)O)C(=O)N[C@H](C(N)=O)[C@@H](C)O)C(C)C)C(=O)O)C(=O)O) [PEP76 (control molecule of Table 7)] |  |  | 0.007 nM | 0.009 nM
